We go through one substance from publication PMC6078464.

The test deals with PEDV nsp15 (H241A) (PEDV FJZZ strain). Kind of test: AUC.

As for PEDV nsp15 (H241A) (enzyme), the percentage as hexamer stood at 81.2%.
